In patent publication US20250051435A1 (INVETX, published 2025):
One block for each binder: values may come before it.

Columns and labels:
[1] = biological target: T1, feline IL-5 (Kingfisher Biotech; RP1152F) (feline, UniProt O77515 20-134); test: SPR Biacore T200, IgG captured on goat anti-feline IgG CM5 chip, feline IL-5 as analyte
T1 construct: Bought recombinant protein; also called fIL-5; fIL5
T1 sequence (looked up): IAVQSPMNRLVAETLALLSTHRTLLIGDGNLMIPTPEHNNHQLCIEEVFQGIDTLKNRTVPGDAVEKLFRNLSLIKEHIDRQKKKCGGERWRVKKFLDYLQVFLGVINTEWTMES
Source text: MABS, 11:239-264). These post-translational modifications can be particularly problematic when they reside in the CDRs. […] DNA constructs were synthesized (GeneArt) encoding the MtxB clone with substitutions to eliminate the potential sequence liabilities. For the NG site in LCDR3, the Asn (position 106) was substituted with either a Gln or a Ser and for the Met in HCDR3 (position 115), a Len was substituted. The DNA constructs with the light chain variants were fused to the feline kappa constant domain. These DNA constructs were subcloned into the pcDNA3.4 expression vector (ThermoFisher) and expressed with the ExpiCHO system (ThermoFisher). The antibodies were purified with mAbSelect SuRe chromatography (Cytiva) and buffer exchanged into 20 mM sodium acetate, 136 mM sodium chloride, pH 5.5. The variants were tested in an SPR experiment using a Biacore T200 instrument to measure their affinity to feline IL-5 (Kingfisher Biotech; RP1152F). Goat anti-feline IgG was immobilized onto a Series S CM5 sensor chip (Cytiva) and the original MtxB clone and the variants containing the amino acid substitutions were captured on the chip at 5 μg/ml.
DNA constructs (GeneArt) were generated for the two heavy chain variants with the feline IgG1a constant domain along with the three light chain variants with the feline kappa constant domain were all subcloned into pcDNA 3.4 (ThermnoFisher Scientific). Each combination of the heavy and light chain variants was transfected into ExpiCHO cells to generate conditioned medium. The feline IgGs were purified using MabSelect SuRe chromatography and buffer exchanged into 20 mM sodium acetate, 136 mM sodium chloride, pH 5.5. The binding affinities of the different feline IgGs to feline IL-5 was determined using the same SPR method described in the removing potential sequence liabilities in LCDR3 and HCDR3 section and are shown below in Table 7.

[2] = biological target: T1, feline IL-5 (Kingfisher Biotech; …); test: Biacore, antibody pre-incubated with 50 nM IL-5 at 1:1, over captured biotinylated IL-5Rα-Fc-AviTag (competitor m3)
Method: (§1) MtxA antibody and MtxB antibody had the highest affinity to feline IL-5 as determined by surface plasmon resonance (SPR) using a Biacore T200 instrument. Goat anti-feline IgG-Fc fragment specific (Jackson ImmunoResearch; 102-005-008) at 30 μg/ml in 10 mM acetate, pH 5.0 was immobilized onto CM5 sensor chip (Cytiva; 29104988) with NHS coupling at 10 μL/min for 420 seconds and then other sites blocked with ethanolamine at 10 μL/min for 420 seconds. The anti-feline IL-5 antibodies were captured at 2 μg/ml onto the anti-feline IgG CM5 chip for 60 sec at 10 μl/min. […] The kinetics of the feline IL-5 binding to the antibodies is shown below in FIG. 2. In addition, an IL-5 receptor blocking assay was completed by capturing biotinylated receptors on a Series S CAP chip and Biotin CAPture reagent (Cytiva). For this assay, a fusion protein was generated containing the extracellular domain of feline IL-5Rα (XP_011278466.1) linked to a 2X-Gly-Gly-Gly-Ser (SEQ ID NO:89) linker-linked to the human IgG1 Fc linked to the AviTag sequence (FIG. 1B, SEQ ID NO:2) and subcloned into the pcDNA3.4 mammalian expression vector. This construct was expressed in CHO-S cells and purified with protein A chromatography followed by a polishing chromatography step with SEC. The purified recombinant protein was biotinylated in vitro using the BirA biotin ligase. Antibodies were titrated in running buffer (1×PBSP+, Cytiva) and pre-incubated with 50 nM IL-5 (Kingfisher) at multiple molar ratios. Binding was assessed by injecting these samples over the captured receptor for 180 s. The Rmax was used to calculate the inhibition percent by dividing the Rmax of the pre-mixed samples by an average of the IL-5-only Rmax samples that were collected throughout the assay. The ability of each antibody to block binding of feline IL5 was measured (Table 2).

[3] = biological target: T1, feline IL-5 (Kingfisher Biotech; …); test: SPR Biacore T200, IgG captured on goat anti-feline IgG-Fc CM5 chip, feline IL-5 as analyte
Method: as §1

[4] = biological target: T1, feline IL-5 (Kingfisher Biotech; …); test: high-throughput SPR (Carterra LSA), antibody coupled to HC-30M chip, feline IL-5 as analyte
Method: The chip surface was first activated by flowing a freshly prepared 1:1:1 activation mix of 100 mM MES pH 5.5, 100 mM S-NHS, and 400 mM EDC for seven minutes. Antibodies diluted to 10 μg/mL in 10 mM sodium acetate, pH 4.25 buffer, 0.01% Tween were coupled to the chip surface for 10 min using the instrument 96 Multi Flow Channel printhead. The chip surface was quenched by flowing 1 M Ethanolamine for seven minutes, followed by two wash steps of 15 seconds each in 25 mM MES pH 5.5 buffer. Feline IL-5 (Kingfisher Biotech; RP1152F) was used at the following concentrations: 1000, 333.3, 111.1, 37.0, 12.3, 4.1, 1.4, 0.45, and 0.15 nM.

- Kd [1]: 0.0914 nM
- koff [1]: 3.38e-05 s⁻¹
- kon [1]: 369000 M⁻¹ s⁻¹
- % blocking 1:1 [2]: 98.2%
- Kd [3]: 0.129 nM
- koff [3]: 3.56e-05 s⁻¹
- kon [3]: 276000 M⁻¹ s⁻¹
B1: Chimeric 154 (clone 154 variable domains with feline IgG1a and feline kappa constant domains) (antibody, V domains shown)
VH: EVQLVESGGDLVKPGGSLKLSCAASGFTFSNYAMSWVRQTPDKRLEWVATIGSGGHYTYHPDSVKGRFSISRDNAKNTLSLQMSSLKSEDTAMYYCTRETDGYDGMDYWGQGTSVTVSS
VL: DIVMTQSPATLSVTPGDRVSLSCRASQSISDYLYWYQQKSHESPRLLIKYASQSISGIPARFSGSGSGSDFTLSINSVEPEDVGVYYCQNGHSFPYTFGGGTKLEIK
notes: also called 154 chimera

- Kd [4]: 0.141 nM
B2: murine anti-feline IL-5 antibody clone 154 (antibody, V domains shown)
VH: B1 VH
VL: B1 VL
notes: also called murine antibody 154

- Kd [1]: 0.273 nM
- koff [1]: 6.65e-05 s⁻¹
- kon [1]: 242000 M⁻¹ s⁻¹
- % blocking 1:1 [2]: 92.5%
- Kd [3]: 0.178 nM
- koff [3]: 1.49e-05 s⁻¹
- kon [3]: 87100 M⁻¹ s⁻¹
B3: MtxA antibody (felinized clone 154) (antibody, IgG1a, V domains shown)
VH: DVQLVESGGDLVKPGGSLRLTCVGSGFTFSNYAMSWVRQAPGEGLQWVATIGSGGHYTYHPDSVKGRFTISRDNAKNTLYLQMNSLQTEDTASYYCTRETDGYDGMDYWGQGTLVTVSS
VL: EIQMTQSPSSLSASVGDRVTITCRASQSISDYLYWYQQKPGKAPKLLIYYASQSISGVPSRFSGSGSGTDFTLTISSLQPEDFATYYCQNGHSFPYTFGPGTKLEIK
notes: Feline IgG1a (GenBank BAA32229.1) / feline kappa (GenBank ATI97438.1); also called Matrix clone A
